According to patent US20200207868A1 (UNIVERSITY OF SASKATCHEWAN, published 2020):

B1: anti-HER3 scFv-CH3 labeled with IRDye800CW (other)
chain: SDIQMTQSPSSLSASVGDRVTITCRASQGISNYLAWYQQKPGKAPKLLIYAASSLQSGVPSRFSGSRSGTDFTLTISSLQPEDFATYYCQQYGWLPLTFGQGTKVEIKGGGGSGGGGSGGGGSEISEVQLVESGGGLVQPGGSLRLSCAASGFTFSSYGMHWVRQAPGKGLEWVAVISYDGSNKYYADSVKGRFTISRDNSKNTLYLQMNSLRAEDTAVYYCARTDPYSLGGYYFDYWGQGTLVTVSSEPKSCDKTHTCPPCPGQPREPQVYTLPPSREEMTKNQVSLTCLVKGFYPSDIAVEWESNGQPENNYKTTPPVLDSDGSFFLYSKLTVDKSRWQQGNVFSCSVMHEALHNHYTQKSLSLSPGK
notes: also called IRDye800CW-labeled scFv-CH3
B2: anti-HER3 diabody (other)
chain: SDIQMTQSPSSLSASVGDRVTITCRASQGISNYLAWYQQKPGKAPKLLIYAASSLQSGVPSRFSGSRSGTDFTLTISSLQPEDFATYYCQQYGWLPLTFGQGTKVEIKGGGGSEISEVQLVESGGGLVQPGGSLRLSCAASGFTFSSYGMHWVRQAPGKGLEWVAVISYDGSNKYYADSVKGRFTISRDNSKNTLYLQMNSLRAEDTAVYYCARTDPYSLGGYYFDYWGQGTLVTVSS
notes: VL-GGGGS-VH of HER3-3; bivalent (51.6 kDa), expressed in E. coli
B3: anti-HER3 diabody labeled with IRDye800CW (other)
chain: B2 chain
modifications: IRDye800CW-NHS label, 1-2 dye molecules per fragment, sites not stated
notes: m5 labelled with IRDye800CW; also called IRDye800CW-labeled diabody
B4: anti-HER3 scFv (scFv)
scFv: SDIQMTQSPSSLSASVGDRVTITCRASQGISNYLAWYQQKPGKAPKLLIYAASSLQSGVPSRFSGSRSGTDFTLTISSLQPEDFATYYCQQYGWLPLTFGQGTKVEIKGGGGSGGGGSGGGGSEISEVQLVESGGGLVQPGGSLRLSCAASGFTFSSYGMHWVRQAPGKGLEWVAVISYDGSNKYYADSVKGRFTISRDNSKNTLYLQMNSLRAEDTAVYYCARTDPYSLGGYYFDYWGQGTLVTVSS
notes: VL-(GGGGS)3-VH of HER3-3, expressed in E. coli
B5: anti-HER3 scFv labeled with IRDye800CW (scFv)
scFv: B4 scFv
modifications: IRDye800CW-NHS label, 1-2 dye molecules per fragment, sites not stated
notes: m4 labelled with IRDye800CW; also called IRDye800CW-labeled scFv

Experiments:
[1] = target: T1, recombinant human HER3-Fc chimera protein (R&D Systems) (human, UniProt P21860 20-643); assay: BLI, IRDye800CW-labeled antibody
T1 construct: extracellular domain; Bought from R&D Systems; also called recombinant human HER3 extracellular domain; recombinant HER3; not shown: Fc part of the purchased chimera
T1 sequence (P21860 20-643, change not shown): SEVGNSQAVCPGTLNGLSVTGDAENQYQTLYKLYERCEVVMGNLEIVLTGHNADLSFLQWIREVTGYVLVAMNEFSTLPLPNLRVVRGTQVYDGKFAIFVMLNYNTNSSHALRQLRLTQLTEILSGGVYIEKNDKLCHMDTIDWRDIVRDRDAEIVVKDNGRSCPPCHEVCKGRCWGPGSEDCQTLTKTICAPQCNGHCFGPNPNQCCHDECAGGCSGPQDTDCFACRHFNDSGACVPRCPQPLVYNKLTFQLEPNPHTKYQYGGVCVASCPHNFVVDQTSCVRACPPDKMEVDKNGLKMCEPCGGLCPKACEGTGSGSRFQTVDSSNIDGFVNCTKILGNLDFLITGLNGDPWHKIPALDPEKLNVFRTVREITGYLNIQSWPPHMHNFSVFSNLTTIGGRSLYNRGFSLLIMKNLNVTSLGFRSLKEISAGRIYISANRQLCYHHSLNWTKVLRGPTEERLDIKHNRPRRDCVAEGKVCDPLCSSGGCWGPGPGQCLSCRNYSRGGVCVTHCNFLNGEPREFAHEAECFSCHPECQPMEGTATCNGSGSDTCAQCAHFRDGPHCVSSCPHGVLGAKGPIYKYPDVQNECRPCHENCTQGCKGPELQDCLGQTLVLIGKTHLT

[2] = target: T1, recombinant human HER3-Fc chimera …; assay: BLI (Octet Red), antibody on AR2G sensor, HER3-Fc 10-263 nM, 1:1 fit
Procedure: Binding kinetics were measured using an Octet Red instrument (ForteBio, Menlo Park, Calif.), following the manufacturer's protocol. Binding assays were performed in 96-well microtiter plates at 30° C. with sample plate orbital motion agitation at 1000 rpm. All washes, dilutions, and measurements were performed in phosphate buffered saline (PBS), pH 7.4. The IgG and antibody fragments were immobilized on amine-reactive second generation (AR2G) sensors using the manufacturer's protocol at pH 5 followed by quenching with 1 M ethanolamine, pH 8.5. […] Binding was monitored by placing sensors into wells for 5 min, followed by dissociation in PBS for 10 min. KD, kON, and kOFF were determined with ForteBio Data Analysis software v7.1.0.33 through locally fitting the processed data using a 1:1 binding model.

[3] = target: HER3 (as used in the biolayer interferometry of Example 2) (UniProt P21860 20-643, limits assumed); assay: BLI
Sequence of HER3 (as used in the biolayer interferometry of Example 2) (P21860 20-643 limits assumed): as the sequence (P21860 20-643, change not shown) above

Row | Binder | Kd [1] [nM] | Kd [2] [nM] | koff [2] [s⁻¹] | kon [2] [M⁻¹ s⁻¹] | other results
1 | B1 | 2.1 | – | – | – | –
2 | B2 | – | 3 | 0.00044 | 150000 | –
3 | B3 | 2.4 | – | – | – | –
4 | B4 | – | 20 | 0.00054 | 33000 | Kd [3]: 21.6 nM; koff [3]: 0.00127 s⁻¹; kon [3]: 60400 M⁻¹ s⁻¹
5 | B5 | 29 | – | – | – | –
